Assays:
[1] = target: T1, human trypsin 1 with serine to alanine mutation (including a His tag at C terminus) (human, UniProt P07477 24-247); experiment: SPR (Biacore), antibody captured on Protein A chip, single-cycle kinetics, 25 C
T1 construct: also called Trypsin 1 S to A
Description: (§1) Antibody binding kinetic experiments via Biacore were performed to screen for anti-trypsin 1/trypsin 2 antibodies having high affinity to the respective targets. All screening assays were performed at 25 C. The running buffer used was 20 mM HEPES, 300 mM NaCl, 1 mM CaCl₂, 0.01% Tween-20, pH 7.5. Antibodies (1 ug/mL) were captured on Fc2-4 of a Series S ProteinA Sensor Chip (Cytiva) flowing at 10 uL/min for 30 s. Kinetics measurements were made in single-cycle kinetics mode with a series of 4-5 concentrations with top concentration of 10-200 nM and serial dilution 4-fold. Contact time was typically 180-300 s and dissociation time ranged from 300-3600 s. Flow rate of 30 uL/min was typically used. The sensor chip was regenerated with 10 mM glycine, pH 1.5 with a contact time of 30 s flowing at 50 uL/min.

[2] = target: T2, human trypsin 2 with serine to alanine mutation (including a His tag at C terminus) (human, UniProt P07478 25-247, limits assumed); experiment: as above
T2 construct: also called Trypsin 2 S to A
Description: as §1

[3] = target: human PRSS1 (R&D Systems), activated with enterokinase (human, UniProt P07477 24-247); experiment: cell-based or functional assay
[4] = target: PRSS2 (R&D Systems), activated with enterokinase (human, UniProt P07478 24-247); experiment: cell-based or functional assay
Native Trypsin (abcam) = experiment: cell-based or functional assay

PRSS2 (R&D Systems), activated with enterokinase, sequence (P07478 24-247 limits assumed): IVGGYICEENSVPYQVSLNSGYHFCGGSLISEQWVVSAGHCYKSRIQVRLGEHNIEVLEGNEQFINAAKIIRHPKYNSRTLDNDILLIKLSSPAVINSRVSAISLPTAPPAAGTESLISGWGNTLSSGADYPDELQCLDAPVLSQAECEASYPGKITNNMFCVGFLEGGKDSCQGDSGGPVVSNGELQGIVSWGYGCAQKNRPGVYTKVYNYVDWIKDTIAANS
T2 sequence (P07478 other isoform, or with tags, fused parts or gaps limits assumed): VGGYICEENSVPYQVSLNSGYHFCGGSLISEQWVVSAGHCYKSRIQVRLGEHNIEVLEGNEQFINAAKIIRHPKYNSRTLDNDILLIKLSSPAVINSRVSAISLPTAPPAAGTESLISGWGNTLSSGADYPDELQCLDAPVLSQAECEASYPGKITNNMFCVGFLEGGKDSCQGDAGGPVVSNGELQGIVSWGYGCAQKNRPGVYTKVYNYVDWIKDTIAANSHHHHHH

Binder | Kd [1] | Kd [2] | IC50 Against 1 nM hTryp-1 [3] | IC50 Against 1 nM hTryp-2 [4] | IC50 Against 0.25 nM Native Trypsin (Native Trypsin (abcam))
Trypsin 1/Trypsin 2-Dual-L2-Ab4 (antibody, V domains shown) VH: QVQLQESGPGLVKPSETLSLTCTVSGGSISSHYWHWIRQPAGKGLEWIGRIHTSGSTFYNPSLKSRVTMSVDTSKNQFSLKLSSVTAADTAVYYCARDLTNYGWSKSIRFYGMDVWGQGTTVTVSS VL: DIQMTQSPSSLSASVGDRVTITCQASQDISNYLNWYQQKPGKAPKLLIYDASNLETGVPSRFSGSGSGTDFTFTISSLQPEDIATYYCQQTDNFITFGGGTKVEIK | < 0.01 nM | 0.00904 nM | 3.71 nM | 5.6 nM | 4.97 nM
Trypsin 1/Trypsin 2-Dual-L3-Ab1 (antibody, V domains shown) VH: not shown VL: EIVMTQSPATLSVSPGERATLSCRASQSVGSNLAWYQQKPGQAPRLLIYGASTRATGIPARFSGSGSGTEFTLTISSLQSEDFAVYYCQQFHNWPPLTFGGGTKVEIK | 0.0177 nM | 0.159 nM | 5 nM | 16 nM | –
Trypsin 1/Trypsin 2-Dual-L5-Ab1 (antibody, V domains shown) VH: not shown VL: EIVMTQSPATLSVSPGERATLSCRASQSVGSNLAWYQQKPGQAPRLLIYGASTRATGIPARFSGSGSGTEFTLTISSLQSEDFAVYYCQQFHNWPPLTFGGGTKVEIK | 0.151 nM | 0.227 nM | 45 nM | 23 nM | –
Trypsin 1/Trypsin 2-Dual-L3-Ab2 (antibody, V domains shown) VH: QVQLVQSGAEVKKPGASVKVSCKASGYTFTDHYMHWVRQAPGQGLEWMGAINPSSGGTAYAQKFQGRVTMTRDTSISTAYMELSRLRSDDTAVYYCARVGGAARVGKAYTASAFDIWGQGTMVTVSS VL: EIVMTQSPATLSVSPGERATLSCRASQSVGSNLAWYQQKPGQAPRLLIYGASTRATGIPARFSGSGSGTEFTLTISSLQSEDFAVYYCQQFHNWPPLTFGGGTKVEIK | 0.00562 nM | 0.0292 nM | 2.75 nM | 4.29 nM | 5.95 nM
Trypsin 1/Trypsin 2-Dual-L1-Ab1 (antibody, V domains shown) VH: EVQLLESGGGLVQPGGSLRLSCAASGFTFSSYAMSWVRQAPGKGLEWVSAISASGGSTYYADSVKGRFTISRDNSKNTLYLQMNSLRAEDTAVYYCARGSPIGYSYARVSYYYYMDVWGKGTTVTVSS VL: DIQMTQSPSSVSASVGDRVTITCRASQGISRWLAWYQQKPGKAPKLLIYAASSLQSGVPSRFSGSGSGTDFTLTISSLQPEDFATYYCQQGNSFPLTFGGGTKVEIK | 2.54 nM | 0.763 nM | 63 nM | 79 nM | –
Trypsin 1/Trypsin 2-Dual-L4-Ab2 (antibody, V domains shown) VH: QVQLVQSGAEVKKPGASVKVSCKASGYTFTDYAISWVRQAPGQGLEWMGWISASTADTNYAQKLQGRVTMTTDTSTSTAYMELRSLRSDDTAVYYCARGDEVVGKMTYYYGMDVWGQGTTVTVSS VL: DIQMTQSPSSVSASVGDRVTITCRASQGISRWLAWYQQKPGKAPKLLIYAASSLQSGVPSRFSGSGSGTDFTLTISSLQPEDFATYYCQQANSFPITFGGGTKVEIK | < 0.01 nM | 0.0372 nM | 2.07 nM | 2.03 nM | 5.51 nM
Trypsin 1/Trypsin 2-Dual-L4-Ab1 (antibody, V domains shown) VH: QVQLVQSGAEVKKPGASVKVSCKASGYTFTSYGISWVRQAPGQGLEWMGWISAYSGDTNYAQKLQGRVTMTTDTSTSTAYMELRSLRSDDTAVYYCARGDEVVGKMTYYYGMDVWGQGTTVTVSS VL: DIQMTQSPSSVSASVGDRVTITCRASQGISRWLAWYQQKPGKAPKLLIYAASSLQSGVPSRFSGSGSGTDFTLTISSLQPEDFATYYCQQANSFPITFGGGTKVEIK | 0.0809 nM | 0.547 nM | 1.8 nM | 14 nM | –
Trypsin 1/Trypsin 2-Dual-L4-Ab3 (antibody, V domains shown) VH: QVQLVQSGAEVKKPGASVKVSCKASGYTFTDYAISWVRQAPGQGLEWMGWISASTADTNYAQKLQGRVTMTTDTSTSTAYMELRSLRSDDTAVYYCARGDEVVGKRTYYIGMDVWGQGTTVTVSS VL: DIQMTQSPSSVSASVGDRVTITCRASQGISRWLAWYQQKPGKAPKLLIYAASSLQSGVPSRFSGSGSGTDFTLTISSLQPEDFATYYCQQANSFPITFGGGTKVEIK | 0.00841 nM | 0.0451 nM | 2.31 nM | 2.01 nM | 4.43 nM

Other lines, results leading:

Kd [1] | Kd [2] | IC50 Against 1 nM hTryp-1 [3] | IC50 Against 1 nM hTryp-2 [4] | IC50 Against 0.25 nM Native Trypsin (Native Trypsin (abcam)) | Binder
0.0118 nM | 0.0219 nM | 2.3 nM | 2.44 nM | 4.63 nM | Trypsin 1/Trypsin 2-Dual-L2-Ab3 (antibody, V domains shown) VH: QVQLQESGPGLVKPSETLSLTCTVSGGSISSHYWHWIRQPAGKGLEWIGRIATSGSTYYNPSLKSRVTMSVDTSKNQFSLKLSSVTAADTAVYYCARDLTNYGITKSIRFYGMDVWGQGTTVTVSS VL: DIQMTQSPSSLSASVGDRVTITCQASQDISNYLNWYQQKPGKAPKLLIYDASNLETGVPSRFSGSGSGTDFTFTISSLQPEDIATYYCQQVDNFITFGGGTKVEIK
2.61 nM | 2.2 nM | 46 nM | 79 nM | – | Trypsin 1/Trypsin 2-Dual-L2-Ab1 (antibody, V domains shown) VH: QVQLQESGPGLVKPSETLSLTCTVSGGSISSYYWSWIRQPAGKGLEWIGRIYTSGSTNYNPSLKSRVTMSVDTSKNQFSLKLSSVTAADTAVYYCARDLTNYGSGKSIRFYGMDVWGQGTTVTVSS VL: DIQMTQSPSSLSASVGDRVTITCQASQDISNYLNWYQQKPGKAPKLLIYDASNLETGVPSRFSGSGSGTDFTFTISSLQPEDIATYYCQQDDNFITFGGGTKVEIK
0.000891 nM | 0.00988 nM | 2.67 nM | 3.3 nM | 5.51 nM | Trypsin 1/Trypsin 2-Dual-L2-Ab2 (antibody, V domains shown) VH: QVQLQESGPGLVKPSETLSLTCTVSGGSISSNYWHWIRQPAGKGLEWIGRIHTSGSTFYNPSLKSRVTMSVDTSKNQFSLKLSSVTAADTAVYYCARDITNYGSGKSIRFYPMDVWGQGTTVTVSS VL: DIQMTQSPSSLSASVGDRVTITCQASQDISNYLNWYQQKPGKAPKLLIYDASNLETGVPSRFSGSGSGTDFTFTISSLQPEDIATYYCQQDDTFITFGGGTKVEIK
< 0.01 nM | 0.00648 nM | 5.87 nM | 6.09 nM | 9.82 nM | Trypsin 1/Trypsin 2-Dual-L5-Ab2 (antibody, V domains shown) VH: QVQLVQSGAEVKKPGASVKVSCKASGYTFEGHYMHWVRQAPGQGLEWMGAINPYSGQTNYAQKFQGRVTMTRDTSISTAYMELSRLRSDDTAVYYCARDFVLLLRQSRILHESAFDIWGQGTTVTVSS VL: EIVMTQSPATLSVSPGERATLSCRASQSVGSNLAWYQQKPGQAPRLLIYGASTRATGIPARFSGSGSGTEFTLTISSLQSEDFAVYYCQQFHNWPPLTFGGGTKVEIK
0.00465 nM | 0.0274 nM | 2.4 nM | 2.7 nM | – | Trypsin 1/Trypsin 2-Dual-L4-Ab5 (antibody, V domains shown) VH: QVQLVQSGAEVKKPGASVKVSCKASGYTFTDYAISWVRQAPGQGLEWMGWISASTADTNYAQKLQGRVTMTTDTSTSTAYMELRSLRSDDTAVYYCARQDEVVGKMTYYIGTDVWGQGTTVTVSS VL: DIQMTQSPSSVSASVGDRVTITCRASQGISRWLAWYQQKPGKAPKLLIYAASSLQSGVPSRFSGSGSGTDFTLTISSLQPEDFATYYCQQANSFPITFGGGTKVEIK
< 0.01 nM | 0.0206 nM | 2.05 nM | 2.01 nM | 5.48 nM | Trypsin 1/Trypsin 2-Dual-L4-Ab4 (antibody, V domains shown) VH: QVQLVQSGAEVKKPGASVKVSCKASGYTFTDYAISWVRQAPGQGLEWMGWISASTADTNYAQKLQGRVTMTTDTSTSTAYMELRSLRSDDTAVYYCARGTEVVGKMTVYLGMDVWGQGTTVTVSS VL: DIQMTQSPSSVSASVGDRVTITCRASQGISRWLAWYQQKPGKAPKLLIYAASSLQSGVPSRFSGSGSGTDFTLTISSLQPEDFATYYCQQANSFPITFGGGTKVEIK
< 0.01 nM | < 0.01 nM | 3.7 nM | 5.33 nM | 7.98 nM | Trypsin 1/Trypsin 2-Dual-L1-Ab2 (antibody, V domains shown) VH: EVQLLESGGGLVQPGGSLRLSCAASGFTFGDYAMWWVRQAPGKGLEWVSAISASGDVTYYADSVKGRFTISRDNSKNTLYLQMNSLRAEDTAVYYCARGSLIGYSYARVSYYYYSDVWGKGTTVTVSS VL: DIQMTQSPSSVSASVGDRVTITCRASQGISRWLAWYQQKPGKAPKLLIYAASSLQSGVPSRFSGSGSGTDFTLTISSLQPEDFATYYCQQGWSFPLTFGGGTKVEIK
